According to PMC9579148:

biological target: SARS-CoV-2 main protease M^pro (untagged, native termini) (SARS-CoV-2) (UniProt P0DTD1); assay: ITC

“compound 58 (octanoyl-Gly-Phe-His aldehyde) (peptide)” and “compound 57 (BOC-Gly-Phe-His aldehyde) (peptide)” are within 1.5-fold of each other in Kd: 425 nM for the first, 442 nM for the second.

“compound 4 (acetyl-Gly-Phe-His aldehyde, tripeptide derivative of AT1001)” showed a Kd of 640 nM.

Going from “compound 58 (octanoyl-Gly-Phe-His aldehyde) (peptide)” to “compound 57 (BOC-Gly-Phe-His aldehyde) (peptide)”, the dH rises from -16.4 kcal/mol to -14.5 kcal/mol.

For “compound 4 (acetyl-Gly-Phe-His aldehyde, tripeptide derivative of AT1001)”, the dH was -12.7 kcal/mol.

Compared with “compound 58 (octanoyl-Gly-Phe-His aldehyde) (peptide)”, “compound 57 (BOC-Gly-Phe-His aldehyde) (peptide)” is higher in stoichiometry N: 0.966 for the first, 0.991 for the second.

In the case of “compound 4 (acetyl-Gly-Phe-His aldehyde, tripeptide derivative of AT1001)”, the stoichiometry N is reported as 1.04.
